Our source for the percent of the protein in the lysate bound values is PMC2120552.

“And” between values parts separate entries of the source, which are not always exact repeats. Equal values may be shown once.

The target of the assay is synthetic beta1 peptide, identical in sequence to the complete cytoplasmic domain of the beta1 integrin subunit. Nature of the assay: pull-down.

On to “alpha-actinin (from UniProt P05094 1-893) (natural protein)”, for which the percent of the protein in the lysate bound was 10% and > 10%.
